Laboratory results: patent US20230390371A1, “ANTI-TUMOR IMMUNITY INDUCES THE PRESENTATION OF ABERRANT PEPTIDES” (STICHTING HET NEDERLANDS KANKER INSTITUUT-ANTONI VAN …, priority 2020, published 2023)

Test system: MD55A3 melanoma cells
Test: V5-ATF4(1-63)-His frameshift reporter, His-tag pulldown and V5-tag immunoblotting
Format: cell-based, human
Conditions: IFNγ treatment vs control, MD55A3 cells
Source text: FIG. 3: W-Bumps are associated with disordered out-of-frame peptides, and shortage in tryptophan leads to frameshifting events. • (a) Bar-plots depicting total occurrences of alpha-helices, beta-sheets and turns for tryptophan-containing peptide sequences corresponding to W-Bumps (left) and all remaining peptide sequences (middle), and the difference in percentages (right). […] Tryptophan shortage, on the other hand, can lead to stalling on the tryptophan codon (bottom left panel), or could in theory induce frameshifting events, leading to aberrant peptide production (lower right panel). Since secondary structure of growing polypeptide chains is attained in the lower tunnel of the ribosome, the loss of an a-helical secondary structure in this tunnel could hamper ribosomal progression. (c) Line-plots depicting the probability of disorderedness of peptide sequences. The position of the tryptophan is indicated by the dashed line. […] The green line represents the average probability of disorderedness of all peptides (‘All tryptophan codons’, n=36508). A group of outlier candidates that show relatively ordered out-of-frame peptide sequences were selected for comparisons (‘Selected tryptophan codons’, n=94, red). (d) Line-plots depicting mean frequency of RPFs at single nucleotide resolution across all tryptophans (green) and the selected outlier set (red) from panel 3c. […]

B1: IFNγ: interferon gamma (PeproTech), used at 250 U/mL (protein, UniProt P01579 24-161, looked up)
Interferon gamma: QDPYVKEAENLKKYFNAGHSDVADNGTLFLGILKNWKEESDRKIMQSQIVSFYFKLFKNFKDDQSIQKSVETIKEDMNVKFFNSNKKKRDDFEKLTNYSVTDLNVQRKAIHELIQVMAELSPAAKTGKRKRSQMLFRG
His-tag pulldown of +1 and +2 reporter proteins (frameshifting events): partially pulled down
